Laboratory results as given in US20130236458A1 (AbbVie / Abbott, published 2013).

B1: DVD2191 (bispecific antibody)
VH: EVQLVQSGAEVKKPGSSVKVSCKASGGSFGGYGIGWVRQAPGQGLEWMGGITPFFGFADYAQKFQGRVTITADESTTTAYMELSGLTSDDTAVYYCARDPNEFWNGYYSTHDFDSWGQGTTVTVSSASTKGPEVQLVQSGAEVKKPGASVKVSCKASGYTFTSYWMHWVRQAPGQGLEWIGNINPKGGSNIYNEKFQGRVTMTRDTSISTAYMELSRLRSDDTAVYYCARLDYFGDSFDLWGQGTTVTVSS
VL: EIVLTQSPDFQSVTPKEKVTITCRASQDIGSELHWYQQKPDQPPKLLIKYASHSTSGVPSRFSGSGSGTDFTLTINGLEAEDAGTYYCHQTDSLPYTFGPGTKVDIKRTVAAPDIQMTQSPSSLSASVGDRVTITCRASQGIRNYLNWYQQKPGKAPKLLIYYASNLEVGVPSRFSGSGSGTDYTLTISSLQPEDFATYYCQQDNRFPYTFGGGTKVEIKR
notes: DVD-Ig; also called DVD2191H; DVD2191L
B2: DVD2192 (bispecific antibody)
VH: EVQLVQSGAEVKKPGASVKVSCKASGYTFTSYWMHWVRQAPGQGLEWIGNINPKGGSNIYNEKFQGRVTMTRDTSISTAYMELSRLRSDDTAVYYCARLDYFGDSFDLWGQGTTVTVSSASTKGPEVQLVQSGAEVKKPGSSVKVSCKASGGSFGGYGIGWVRQAPGQGLEWMGGITPFFGFADYAQKFQGRVTITADESTTTAYMELSGLTSDDTAVYYCARDPNEFWNGYYSTHDFDSWGQGTTVTVSS
VL: DIQMTQSPSSLSASVGDRVTITCRASQGIRNYLNWYQQKPGKAPKLLIYYASNLEVGVPSRFSGSGSGTDYTLTISSLQPEDFATYYCQQDNRFPYTFGGGTKVEIKRTVAAPSVFIFPPEIVLTQSPDFQSVTPKEKVTITCRASQDIGSELHWYQQKPDQPPKLLIKYASHSTSGVPSRFSGSGSGTDFTLTINGLEAEDAGTYYCHQTDSLPYTFGPGTKVDIKR
notes: DVD-Ig; also called DVD2192H; DVD2192L

What was measured:
[1] = biological target: T1, Recombinant Human IL-13 (human, UniProt P35225 35-146, limits assumed); test: cell-based or functional assay
[2] = biological target: T2, Recombinant Human IL-17 (human, UniProt Q16552 20-155, limits assumed); test: cell-based or functional assay
T2 sequence (looked up): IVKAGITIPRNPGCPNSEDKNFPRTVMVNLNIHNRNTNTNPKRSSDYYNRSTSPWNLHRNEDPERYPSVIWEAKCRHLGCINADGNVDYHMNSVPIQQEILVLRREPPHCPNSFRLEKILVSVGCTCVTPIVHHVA

[3] = biological target: T2, Recombinant Human IL-17; test: SPR (Biacore)
How it was run: (§1)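 Antibodies or DVD-Ig captured on anti-mouse IgG (Fcγ) CM5 surface; antigen injected at 10–200 nM in HBS-EP, pH 7.4, 25 °C, 25 µL/min. kon and koff from global 1:1 Langmuir fit; KD = koff/kon.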

[4] = biological target: T1, Recombinant Human IL-13; test: SPR (Biacore)
How it was run: as §1

T1 sequence (P35225 35-146 limits assumed): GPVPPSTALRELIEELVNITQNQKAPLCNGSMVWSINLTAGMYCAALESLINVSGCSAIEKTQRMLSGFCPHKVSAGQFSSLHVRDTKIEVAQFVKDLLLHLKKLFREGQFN

C-Terminal VD IL13 Neutralization Assay IC50 [1] [nM]	N-Terminal VD IL17 Neutralization Assay IC50 [2] [nM]	Kd [3] [nM]	koff [3] [s⁻¹]	kon [3] [M⁻¹ s⁻¹]	Kd [4] [nM]	koff [4] [s⁻¹]	kon [4] [M⁻¹ s⁻¹]	N-Terminal VD IL13 Neutralization Assay IC50 [1] [nM]	C-Terminal VD IL17 Neutralization Assay IC50 [2] [nM]	Binder
0.165	0.013	0.0046	1.2e-05	2.5e+06	0.17	4.4e-05	260000			B1
		< 0.0038	< 1e-06	260000	0.035	5.1e-05	1.5e+06	0.056	0.015	B2
